These results are taken from US11708423B2, “Chimeric engulfment receptor molecules and methods of use” (CERO THERAPEUTICS, INC., priority 2017, dated 2023).

Common to all, as to assay type: cell-based
For test [1], the system named is H1975 lung adenocarcinoma cells. The test can be described thus: LDH assay, H1975 cells, 48 hours co-culture with 1 μM Osimeritinib. Conditions: E:T 1:1, 48 hours, CD4+ T cells. An outline of the steps: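 H1975 EGFR-mutant cells were co-cultured 48 h with CER-expressing or mock-transduced CD4+ T cells at 1:1 effector:target, plus 1 μM osimertinib. After T cells were washed away, viable H1975 cells were quantified by colorimetric LDH assay in triplicate, expressed as % of control.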

A further test relates to A549 ALK+ cells. Kind of test: MTT viability and bright field microscopy of A549 ALK+ cells with CER T cells and ALK inhibitor. The note with it: for in vitro growth/viability of A549 ALK+ cells (MTT): Alectinib or Crizotinib 250 nM-10 μM, E:T 2:1 and 5:1. The source says:
An […] translocation was introduced into A549 cells. […] CER104 has a polypeptide sequence set forth in SEQ ID NO:133 and comprises a Tim4 binding domain, Tim4 transmembrane domain, and an engulfment signaling domain comprising a primary engulfment signaling domain comprising a TLR8 signaling domain and a secondary engulfment signaling domain comprising a DAP12 signaling domain. CER122 has a polypeptide sequence set forth in SEQ ID NO:149 and comprises a Tim4 binding domain, Tim4 transmembrane domain, and an engulfment signaling domain comprising a primary engulfment signaling domain comprising a TLR2 signaling domain and a secondary engulfment signaling domain comprising a DAP12 signaling domain. Effector:target (E:T) cell ratio for co-culture was 2:1 or 5:1. […] Cell viability experiments were performed in triplicates and presented as % of control. Best-fit curves were generated from raw data using linear regression models.
CER21−, CER108−, CER104−, and CER129-transduced CD4+ T cells were tested for their ability to kill A549 ALK+ cells in the presence of ALK inhibitor. CD4+ T cells were transduced with a lentiviral vector comprising a CER21, CER108, CER104, CER129, CER27, CER120, CER122, CER123, CER124, or CER126 nucleic acid. […] After 48 hours of co-culture, T cells were washed away and the number of viable A549 ALK+ cells was quantified using a calorimetric MTT assay (FIGS. 67A-B). Cell viability experiments were performed in triplicates and presented as % of control. Bright field microscopy images were also obtained from A549 ALK+co-culture experiments. […] Arrow indicates cluster of dead A549 ALK+ cells surrounded by phagocytic CER104+ T cells. […]

The next test relates to ALK+A549 cells. The test can be described thus: Phagocytosis of ALK inhibitor treated A549 ALK+ cells by CER T cells (fluorescent microscopy). From the text:
An ELM4-ALK translocation was introduced into A549 cells. […] CD4 T cells are modified to express CER104 or CER117 and labeled with CELLTRACE Violet. CER117 has a polypeptide sequence set forth in SEQ ID NO:144 and comprises a Tim4 binding domain, a Tim4 transmembrane domain, and an engulfment signaling domain comprising a primary engulfment signaling domain comprising a TLR8 signaling domain and a secondary engulfment signaling domain comprising a TRAF6 signaling domain. The ALK+A549 cells were then co-cultured with CER104- or CER117-expressing CD4+ T cells or Mock-transduced (vector only) T cells for 12 hours and images were obtained by fluorescent microscopy at 40× magnification (FIGS. 62A-E). White arrows indicate exemplary phagocytic events (pH rodo red cell targets within CELLTRACE Violet labeled CD4+ T cells).
CER123- and CER126-transduced CD4+ and CD8+ T cells were labeled with CELLTRACE Violet and co-cultured with the A549 ALK-positive cells. Co-cultured cells were imaged by fluorescent microscopy at 63× magnification after 12 hours (FIGS. 63A-F). White arrows indicate exemplary phagocytic events (pHrodo red targets within CELLTRACE Violet-labeled CD4 T cells).
Phagocytosis of Alectinib-treated ALK+A549 cells by CER-expressing T cells was also quantified. […] Bar graph in FIG. 64A represents quantification of percentage phagocytosis calculated as ((number of phagocytic target events)/(total number of effector cells))*100. Events were calculated from fluorescent 3×3 stitched images at 40×resolution after 12 hours of co-culture. Bar graph in FIG. 64B represents quantification of adjusted phagocytic index calculated as (median area ratio of target events in effector cells*phagocytosis). Events calculated from fluorescent 3×3 stitched images at 40×resolution after 12 hours of co-culture.
CER21−, CER27−, CER30−, CER108−, CER110−, CER112−, CER120−, CER123−, CER124−, CER126−, CER127−, or CER104-transduced CD4+ T cells were co-cultured with Alectinib-treated A549 cells at a 1:1 ratio for 12 hours. Phagocytic events were calculated from 3×3 stitched fluorescent microscopy images at 40X resolution. […] Images were obtained after 12 hours of co-culture. Yellow triangles indicate exemplary phagocytic events (pHrodo red targets within CELLTRACE violet labeled CD4+ T cells).
A time course study of phagocytic uptake of tumor cells by CER-transduced T cells was performed. CD4+ T cells were transduced with a lentiviral vector comprising CER122 nucleic acid. Mock-transduced (vector only) CD4+ T cells were used as control. CER122-transduced T cells were labeled with CELLTRACE violet and co-cultured with pHrodo red labeled A549 ALK+ lung adenocarcinoma cells. Fluorescent microscopy images were obtained at 4, 8, and 16 hours co-culture (FIG. 72C), and % phagocytosis (FIG. 72A) and phagocytic index (FIG. 72B) were calculated.

B1: CER126: Tim4 binding and transmembrane domains, TLR2 primary and TRAF2 secondary signaling domains; SEQ ID NO:174 (protein)
chain: MSKGLLLLWLVTELWWLYLTPAASEDTIIGFLGQPVTLPCHYLSWSQSRNSMCWGKGSCPNSKCNAELLRTDGTRIISRKSTKYTLLGKVQFGEVSLTISNTNRGDSGVYCCRIEVPGWFNDVKKNVRLELRRATTTKKPTTTTRPTTTPYVTTTTPELLPTTVMTTSVLPTTTPPQTLATTAFSTAVTTCPSTTPGSFSQETTKGSAFTTESETLPASNHSQRSMMTISTDIAVLRPTGSNPGILPSTSQLTTQKTTLTTSESLQKTTKSHQINSRQTILIIACCVGFVLMVLLFLAFLHRFHGLWYMKMMWAWLQAKRKPRKAPSRNICYDAFVSYSERDAYWVENLMVQELENFNPPFKLCLHKRDFIPGKWIIDNIIDSIEKSHKTVFVLSENFVKSEWCKYELDFSHFRLFDENNDAAILILLEPIEKKAIPQRFCKLRKIMNTKTYLEWPMDEAQREGFWVNLRAAIKSMAAASVTPPGSLELLQPGFSKTLLGTKLEAKYLCSACRNVLRRPFQAQCGHRYCSFCLASILSSGPQNCAACVHEGIYEEGISILESSSAFPDNAARREVESLPAVCPSDGCTWKGTLKEYESCHEGRCPLMLTECPACKGLVRLGEKERHLEHECPERSLSCRHCRAPCCGADVKAHHEVCPKFPLTCDGCGKKKIPREKFQDHVKTCGKCRVPCRFHAIGCLETVEGEKQQEHEVQWLREHLAMLLSSVLEAKPLLGDQSHAGSELLQRCESLEKKTATFENIVCVLNREVERVAMTAEAC
modifications: CER126 protein
Turning to B1, the “killing of H1975 cells (LDH)” value in test [1] is listed as “synergistic killing of H1975 lung adenocarcinoma cells upon EGFR inhibition”. For the same molecule, in the test with A549 ALK+ cells (Alectinib 3.7 μM, 48 hours, vs mock-transduced T cells), the “bright field microscopy of A549 ALK+ co-culture” value is reported as “cluster of dead A549 ALK+ cells surrounded by phagocytic CER126^+ T cells”. In the test with ALK+A549 cells (2.5 μM Alectinib, 12 hours), the “phagocytic elimination of ALK+A549 cells” value is recorded as “phagocytic elimination of ALK+A549 cells”.

B2: CER122: Tim4 binding and transmembrane domains, TLR2 primary and DAP12 secondary signaling domains; SEQ ID NO:149 (protein)
chain: MSKGLLLLWLVTELWWLYLTPAASEDTIIGFLGQPVTLPCHYLSWSQSRNSMCWGKGSCPNSKCNAELLRTDGTRIISRKSTKYTLLGKVQFGEVSLTISNTNRGDSGVYCCRIEVPGWFNDVKKNVRLELRRATTTKKPTTTTRPTTTPYVTTTTPELLPTTVMTTSVLPTTTPPQTLATTAFSTAVTTCPSTTPGSFSQETTKGSAFTTESETLPASNHSQRSMMTISTDIAVLRPTGSNPGILPSTSQLTTQKTTLTTSESLQKTTKSHQINSRQTILIIACCVGFVLMVLLFLAFLHRFHGLWYMKMMWAWLQAKRKPRKAPSRNICYDAFVSYSERDAYWVENLMVQELENFNPPFKLCLHKRDFIPGKWIIDNIIDSIEKSHKTVFVLSENFVKSEWCKYELDFSHFRLFDENNDAAILILLEPIEKKAIPQRFCKLRKIMNTKTYLEWPMDEAQREGFWVNLRAAIKSYFLGRLVPRGRGAAEAATRKQRITETESPYQELQGQRSDVYSDLNTQRPYYK
modifications: CER122 protein
For B2, the “killing of H1975 cells (LDH)” value in test [1] is reported as “synergistic killing of H1975 lung adenocarcinoma cells upon EGFR inhibition”. Moreover, the “in vitro growth/viability of A549 ALK+ cells (MTT)” value with A549 ALK+ cells (48 hours) and in the test on A549 ALK+ cells (72 hours) was “synergistically suppress in vitro growth of NSCLC cells harboring ALK rearrangements” each time. Moreover, the “phagocytic uptake of A549 ALK+ cells, time course” value in the test with ALK+A549 cells (CD4+ T cells, 4, 8, and 16 hours co-culture) was “phagocytic events by CER122-transduced T cells”.
